Results reported in patent US20220177589A1 (OXFORD UNIVERSITY INNOVATION, published 2022).

What was measured:
[1] = biological target: chimeric BTLA of humanised-BTLA mice (human extracellular region, murine transmembrane and signaling … (human; mouse, UniProt Q7TSA3 184-306, limits assumed); experiment: cell-based or functional assay
[2] = biological target: full length human BTLA expressed in a Jurkat T cell line (human, UniProt Q7Z6A9 31-289); experiment: cell-based or functional assay

Chain of chimeric BTLA of humanised-BTLA mice (human extracellular region, murine transmembrane and signaling … (Q7TSA3 other isoform, or with tags, fused parts or gaps mutant limits assumed): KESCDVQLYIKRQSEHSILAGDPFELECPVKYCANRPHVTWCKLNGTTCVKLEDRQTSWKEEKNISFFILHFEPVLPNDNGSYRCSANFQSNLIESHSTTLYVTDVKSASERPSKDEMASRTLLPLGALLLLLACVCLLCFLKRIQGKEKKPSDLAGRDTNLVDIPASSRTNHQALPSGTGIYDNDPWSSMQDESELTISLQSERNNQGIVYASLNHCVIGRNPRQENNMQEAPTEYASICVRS

AntiCD3/CD28 (CD4 T cell proliferation) repeat 1, % inhibition [1] [%] | AntiCD3/CD28 (CD4 T cell proliferation) repeat 2, % inhibition [1] [%] | AntiCD3/CD28 (CD69+ CD4 T cells) repeat 1, % inhibition [1] [%] | AntiCD3/CD28 (CD69+ CD4 T cells) repeat 2, % inhibition [1] [%] | MLR (CD4 T cell proliferation) repeat 1, % inhibition [1] [%] | MLR (CD4 T cell proliferation) repeat 2, % inhibition [1] [%] | T cell reporter (NFkB signaling), % inhibition [2] [%] | Binder
11 | 19 | 35 | 30 | 12 | 10 | 29 | 26B1 (antibody, IgG1, V domains shown) VH: EVQLQQSGPVLVKPGASVKMSCKASGYTFTDYYLNWVKQSHGKSLEWIGLIDPYNGGSSCNQKFKGKATLTVDKSSSTAYMDLNSLTSEDSAVYYCARGNAMDYWGQGTSVTVSS VL: DIVMTQSHKFMSTSVGDRVSITCKASQDVSTAVAWYQEKPGQSPKLLIYWASTRHTGVPDRFTGSGSGTDYILNISSVQAEDLALYYCQQHYIIPYMFGGGTKLEIK
2 | -2 | 12 | 19 | 19 | 8 | 9 | 15C6 (antibody, IgG1, V domains shown) VH: QVQLQQSGPELVKPGASVKISCKASGYAFSSSWMNWVKQRPGKGLEWIGRIYPGDGDTNYNGKFKGKATLTADKSSSTAYMQLSSLTSEDSAVYFCARRGYGYLAYWGQGTLVTVSA VL: DIVMTQSHKFMSTSVGDRVSITCKASQDVSTAVAWYQQKPGQSPKLLIYSASYRYTGVPDRFTGSGSGTDFTFTISSVQAEDLAVYYCQQHYSTPYTFGGGTKLEIK
4 | 8 | 9 | 23 | 33 | 8 | 22 | 16E1 (antibody, IgG1, V domains shown) VH: QVQLQQSGAELARPGASVKLSCKASGYTFTSYGISWVKQRTGQGLEWIGEIYPRSGNTYYNEKFKGKATLTADKSSSTAYMELRSLTSEDSAVYFCARGYGSSYGFAYWGQGTLVTVSA VL: not shown
9 | 16 | 13 | 20 | 7 | 13 | 21 | 15B6 (antibody, IgG1, V domains shown) VH: QVQLQQPGAELVKPGASVKLSCKASGYTFTSYWMHWVKQRPGQGLEWIGMIHPNSGSTNYNEKFKSKATLTVDKSSSTAYMQLSSLTSEDSAVYYCARKRGGLGDYWGQGTSVTVSS VL: DIVLTQSPASLAVSLGQRATISCRASKSVSTSGYSYMHWYQQKPGQPPKLLIYLASNLESGVPARFSGSGSGTDFTLNIHPVEEEDAATYYCQHSRELPYTFGGGTKLEIK
4 | 0 | 19 | 17 | 9 | -5 | 20 | 26F3 (antibody, IgG1, V domains shown) VH: EVQLQQSVAELVRPGASVKLSCTASGFNIKNTYMYWVKQRPEQGLEWIGRIDPANGNTKYAPKFQGKATITADTSSNTAYLQLSSLTSEDTAIYYCALLYYGSSYDYFDYWGQGTTLTVSS VL: not shown
5 | 9 | 30 | 40 | 28 | 23 | 30 | 12F11 (antibody, IgG1, V domains shown) VH: EVQLQQSGPELVKPGASVKISCKASGYTFTDYYMNWVKQSHGKSLEWIGDINPNNGGTSYNQKFKGKATLTVDKSSSTAYMELRSLTSEDSAVYYCARWRQLRSDYWGQGTTLTVSS VL: DIQMTQSPASQSASLGESVTITCLASQTIGTWLAWYQQKPGKSPQLLIYAATSLADGVPSRFSGSGSGTKFSFKISSLQAEDFVSYYCQQLYSTPLTFGAGTKLELK

The next lines start with the binder.

Binder | AntiCD3/CD28 (CD4 T cell proliferation) repeat 1, % inhibition [1] [%] | AntiCD3/CD28 (CD4 T cell proliferation) repeat 2, % inhibition [1] [%] | AntiCD3/CD28 (CD69+ CD4 T cells) repeat 1, % inhibition [1] [%] | AntiCD3/CD28 (CD69+ CD4 T cells) repeat 2, % inhibition [1] [%] | MLR (CD4 T cell proliferation) repeat 1, % inhibition [1] [%] | MLR (CD4 T cell proliferation) repeat 2, % inhibition [1] [%] | T cell reporter (NFkB signaling), % inhibition [2] [%]
8C4 (antibody, IgG1, V domains shown) VH: DVQLQESGPGMVKPSQSLSLTCTVTGYSITSGYDWHWIRHFPGNKLEWMGYISYSGSTNYNPSLKSRISITHDTSKNHFFLKLNSVTTEDTATYYCARGTPVVAEDYFDYWGQGTTLTVSS VL: QAVVTQESALSTSPGETVTLTCRSSTGAVTTSNYANWVQEKPDHLFTGLIGATNNRAPGVPARFSGSLIGDKAALTITGAQTEDEAIYFCALWYSNHLVFGGGTKLTVLG | 12 | 4 | 29 | 29 | 42 | -2 | 21
3A9 (antibody, IgG1, V domains shown) VH: QVQLKQSGAELVRPGASVKLSCKASGYTFTDYYINWVKQRPGQGLEWIARIYPGSGNTYYNEKFKGKATLTAEKSSSTAYMQLSSLTSEDSAVYFCARGYGNSDYWGQGTTLTVSS VL: DILLTQSPAILSVSPGERVSFSCRASQSIGTRIHWYQQRTNGSPRLLIKYASESISGIPSRFSGSGSGTDFTLSINSVESEDIADYYCQQSNSWPYTFGGGTKLEIK | 9 | 9 | 22 | 34 | 7 | 24 | 27
7A1 (antibody, IgG1, V domains shown) VH: QVQLQQSGPELVKPGASVKISCKASGYAFSSSWMNWVKQRPGKGLEWIGRIYPGDGDTNYNGKFKGKATLTADKSSSTAYMQLSSLTSEDSAVYFCARRGYGYLAYWGQGTLVTVSA VL: DIVMTQSHKFMSTSVGDRVSITCKASQDVSTAVAWYQQKPGQSPKLLIYSASYRYTGVPDRFTGSGSGTDFTFTISSVQAEDLAVYYCQQHYSTPWTFGGGTKLEIK | 14 | 17 | 28 | 38 | 23 | 29 | 20
10B1 (antibody, IgG1, V domains shown) VH: QVQLQQSGAELARPGASVKLSCKASGYTFTSYGISWVKQRTGQGLEWIGEIYPRSGNTYYNEKFKGKATLTADKSSSTAYMELRSLTSEDSAVYFCARNYGSSYPFAYWGQGTLVTVSA VL: not shown | 8 | 14 | 24 | 36 | 16 | 25 | 27
4H4 (antibody, IgG1, V domains shown) VH: QVQLQQSGAELARPGASVKLSCKASGYTFTSYGISWVKQRTGQGLEWIGEIYPRSGNTYYNEKFKGKATLTADKSSSTAYMELRSLTSEDSAVYFCARRRGAGDGFDYWGQGTTLTVSS VL: DIQMTQTTSSLSASLGDRVTISCSASQGISNYLNWYQQKPDGTVKLLIYYTSSLHSGVPSRFSGSGSGTDYSLTISNLEPEDIATYYCQQYSKLPFTFGSGTKLEIK | 14 | 22 | 43 | 52 | 10 | 17 | 25
27G9 (antibody, IgG1, V domains shown) VH: EVQLQQSVAELVRPGASVKLSCTASGFNIKNTYMHWVKQRPEQGLEWIGRIDPANGNTKYAPKFQGKATITADTSSNTAYLQLSSLTSEDTAIYYCALTYYGSSQYYFDYWGQGTTLTVSS VL: not shown | 10 | 13 | 24 | 22 | 9 | 8 | 24
1H6 (antibody, IgG1, V domains shown) VH: EVQLQQSVAELVRPGASVKLSCTASGFNIKNTYMHWVKQRPEQGLEWIGRIDPANGNTKYDPKFQGKATITADTSSNTAYVQLSSLTSEDTAIYYCALTYYGSSQHYFDYWGQGTTLTVSS VL: not shown | 26 | 19 | 47 | 53 | 31 | 16 | 26
3E8 (antibody, IgG1, V domains shown) VH: QVQLQQSGAELARPGASVRLSCKASGYTFTSYAIRWVKQRTGQGLEWIGEIYPRSGNTYYNENFKGKATLTADKSSSTAYMELRSLTSEDSAVYFCARSGGASYTMDYWGQGTSVTVSS VL: not shown | 27 | 35 | 52 | 64 | 43 | 35 | 30
